This passage reports binding result and activity results from patent US20210246451, “APTAMER FOR ADAMTS5 AND USE FOR APTAMER FOR ADAMTS5” (RIBOMIC INC., published 2021).

T1: ADAMTS5 (UniProt Q9UNA0 Q9UNA0:262-622)
T1 sequence: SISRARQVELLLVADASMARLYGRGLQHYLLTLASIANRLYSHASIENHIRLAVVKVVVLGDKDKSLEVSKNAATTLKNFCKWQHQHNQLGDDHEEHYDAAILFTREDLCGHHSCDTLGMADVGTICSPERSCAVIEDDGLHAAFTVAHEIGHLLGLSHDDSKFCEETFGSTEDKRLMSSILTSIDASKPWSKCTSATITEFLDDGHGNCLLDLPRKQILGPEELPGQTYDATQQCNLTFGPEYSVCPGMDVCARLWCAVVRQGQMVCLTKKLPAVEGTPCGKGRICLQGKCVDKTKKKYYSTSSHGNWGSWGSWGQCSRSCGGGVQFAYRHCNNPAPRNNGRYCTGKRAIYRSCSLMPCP

B1: SEQ ID NO: 34 (ssRNA)
RNA: GGGUAUUGGGGCCUCCACAGAAAAAACUUGGACUAAACCAACUCGA
modifications: 2'-F pyrimidines
B2: SEQ ID NO: 36 (ssRNA)
RNA: GGGUAUUGGGGCCUCCACAGUUUAAACUUGGACUAAACCAACUCGA
modifications: 2'-F pyrimidines
B3: SEQ ID NO: 35 (ssRNA)
RNA: GGGUAUUGGGGCCUCCACAGUAAGCACUUGGACUAAACCAGCUCGA
modifications: 2'-F pyrimidines
B4: SEQ ID NO: 31 (ssRNA)
RNA: GGGUAUUGGGGCCUCCACAGUUGAAGCUUGGACUAAACCAAUCUCGA
modifications: 2'-F pyrimidines
B5: SEQ ID NO: 32 (ssRNA)
RNA: GGGUAUUGGGGCCUCCACAGAAAAAUCUUGGACUAAACCAAUCUCGA
modifications: 2'-F pyrimidines
B6: SEQ ID NO: 33 (ssRNA)
RNA: GGGUAUUGGGGCCUCCACAGCCGAGGCUUGGACUAAACCAAUCUCGA
modifications: 2'-F pyrimidines
B7: SEQ ID NO: 30 (ssRNA)
RNA: GGGUAUUGGGGCCUCCACAAUAGAUAAAUGGACUAAACCAACUCGA
modifications: 2'-F pyrimidines
B8: 11(1) (ssRNA)
RNA: AUUGGGGCCUCCACAGCGCUCGCUUGGACUAAACCAAU
modifications: 2'-OMe at 1-5,15-26,32-38; 2'-F other pyrimidines
B9: 11(21) (ssRNA)
RNA: AUUGGGGCCUCCACAGCGCUCGCUUGGACUAAACCAAU
modifications: as 11(1) with PS between 10 and 11
B10: 11(4) (mixed)
RNA: AUUGGGGCCUCCACAGCGCUCGCUUGGACUAAACCAAU
modifications: as 11(1) with dC at 8
B11: 11(19) (ssRNA)
RNA: AUUGGGGCCUCCACAGCGCUCGCUUGGACUAAACCAAU
modifications: as 11(1) with PS between 8 and 9
B12: 11(17) (ssRNA)
RNA: AUUGGGGCCUCCACAGCGCUCGCUUGGACUAAACCAAU
modifications: as 11(1) with PS between 6 and 7
B13: 11(16) (ssRNA)
RNA: AUUGGGGCCUCCACAGCGCUCGCUUGGACUAAACCAAU
modifications: as 11(1) with PS between 5 and 6
B14: 11(30) (ssRNA)
RNA: AUUGGGGCCUCCACAGCGCUCGCUUGGACUAAACCAAU
modifications: as 11(1) with PS between 30 and 31
B15: 11(7) (mixed)
RNA: AUUGGGGCCUCCACAGCGCUCGCUUGGACUAAACCAAU
modifications: as 11(1) with dC at 11
B16: 11(10) (mixed)
RNA: AUUGGGGCCUCCACAGCGCUCGCUUGGACUAAACCAAU
modifications: as 11(1) with dG at 27
B17: 11(3) (mixed)
RNA: AUUGGGGCCUCCACAGCGCUCGCUUGGACUAAACCAAU
modifications: as 11(1) with dG at 7
B18: SEQ ID NO: 13 (ssRNA)
RNA: GCUGGGGCCUCCACAGCGCUCGCUUGGACUAAACCAGC
modifications: 2'-OMe at 1-5,15-26,32-38; 2'-F other pyrimidines
B19: 11(12) (mixed)
RNA: AUUGGGGCCUCCACAGCGCUCGCUUGGACUAAACCAAU
modifications: as 11(1) with dC at 29
B20: 11(5) (mixed)
RNA: AUUGGGGCCUCCACAGCGCUCGCUUGGACUAAACCAAU
modifications: as 11(1) with dC at 9
B21: 11(2) (mixed)
RNA: AUUGGGGCCUCCACAGCGCUCGCUUGGACUAAACCAAU
modifications: as 11(1) with dG at 6
B22: 11(20) (ssRNA)
RNA: AUUGGGGCCUCCACAGCGCUCGCUUGGACUAAACCAAU
modifications: as 11(1) with PS between 9 and 10
B23: 11(9) (mixed)
RNA: AUUGGGGCCUCCACAGCGCUCGCUUGGACUAAACCAAU
modifications: as 11(1) with dC at 14
B24: 11(14) (mixed)
RNA: AUUGGGGCCUCCACAGCGCUCGCUUGGACUAAACCAAU
modifications: as 11(1) with dA at 31
B25: 11(32) (ssRNA)
RNA: AUUGGGGCCUCCACAGCGCUCGCUUGGACUAAACCAAU
modifications: as 11(1) with PS between 8-9, 9-10, 10-11, 14-15; 3' idT
B26: 11(15) (mixed)
RNA: AUUGGGGCCUCCACAGCGCUCGCUUGGACUAAACCAAU
modifications: as 11(1) with dA at 13
B27: 11(18) (ssRNA)
RNA: AUUGGGGCCUCCACAGCGCUCGCUUGGACUAAACCAAU
modifications: as 11(1) with PS between 7 and 8
B28: 11(11) (mixed)
RNA: AUUGGGGCCUCCACAGCGCUCGCUUGGACUAAACCAAU
modifications: as 11(1) with dA at 28
B29: 11(13) (mixed)
RNA: AUUGGGGCCUCCACAGCGCUCGCUUGGACUAAACCAAU
modifications: as 11(1) with dT at 30
B30: 11(6) (mixed)
RNA: AUUGGGGCCUCCACAGCGCUCGCUUGGACUAAACCAAU
modifications: as 11(1) with dT at 10
B31: 11(33) (ssRNA)
RNA: AUUGGGGCCUCCACAGCGCUCGCUUGGACUAAACCAAU
modifications: as 11(1) with 5' 40 kDa branched PEG and 3' idT
B32: SEQ ID NO: 14 (ssRNA)
RNA: AUUGGGGCCUCCACAGCUUCGGCUUGGACUAAACCAAU
modifications: 2'-OMe at 1-5,15-26,32-38; 2'-F other pyrimidines
B33: 11(8) (mixed)
RNA: AUUGGGGCCUCCACAGCGCUCGCUUGGACUAAACCAAU
modifications: as 11(1) with dC at 12
B34: 11(25) (ssRNA)
RNA: AUUGGGGCCUCCACAGCGCUCGCUUGGACUAAACCAAU
modifications: as 11(1) with PS between 14 and 15
B35: 10(1) (ssRNA)
RNA: AUUGGGGCCUCCACAGCUGCUCAGCUUGGACUAAACCAAU
modifications: as SEQ 10 plus 2'-OMe at C8
B36: 10(4) (ssRNA)
RNA: AUUGGGGCCUCCACAGCUGCUCAGCUUGGACUAAACCAAU
modifications: as SEQ 10 plus 2'-OMe at C11
B37: 10(6) (ssRNA)
RNA: AUUGGGGCCUCCACAGCUGCUCAGCUUGGACUAAACCAAU
modifications: as SEQ 10 plus 2'-OMe at U27
B38: 10(7) (ssRNA)
RNA: AUUGGGGCCUCCACAGCUGCUCAGCUUGGACUAAACCAAU
modifications: as SEQ 10 plus 2'-OMe at C31
B39: 10(3) (ssRNA)
RNA: AUUGGGGCCUCCACAGCUGCUCAGCUUGGACUAAACCAAU
modifications: as SEQ 10 plus 2'-OMe at U10
B40: 10(8) (ssRNA)
RNA: AUUGGGGCCUCCACAGCUGCUCAGCUUGGACUAAACCAAU
modifications: as SEQ 10 plus 2'-OMe at U32
B41: 10(2) (ssRNA)
RNA: AUUGGGGCCUCCACAGCUGCUCAGCUUGGACUAAACCAAU
modifications: as SEQ 10 plus 2'-OMe at C9
B42: 10(5) (ssRNA)
RNA: AUUGGGGCCUCCACAGCUGCUCAGCUUGGACUAAACCAAU
modifications: as SEQ 10 plus 2'-OMe at C12

One series concerns the target T1, ADAMTS5. The series can be described thus: SPR; RU ratio >=40%. The following applies: tags: R&D Systems. (SPR reads the build-up and loss of mass on a sensor chip optically.)
Turning to B1, the binding result is given as “binds”.

As for B2, the binding result is “binds”. On the same count and under the same terms, for B3 the value was “binds”.

B4: the binding result is “binds”. The same measure, in the same setting: the entry for B5 is “binds”; for B6 it is “binds”; for B7 it is “binds”.

A further series deals with T1, ADAMTS5. The series can be described thus: inhibition; 10 nM. The following applies: tags: R&D Systems. Here is the method:
Whether an aptamer having the nucleotide sequence shown in SEQ ID NO: 1 inhibits the enzyme activity of ADAMTS5 was evaluated by the following method. As a substrate of ADAMTS5, the G1-IGD-G2 domain of aggrecan (manufactured by R&D systems) was used. ADAMTS5 specifically cleaves in between the 392nd glutamic acid and the 393rd alanine in the G1-IGD-G2 domain and produces two fragments. These fragments have faster electrophoretic mobility than uncleaved G1-IGD-G2. Thus, the enzyme activity of ADAMTS5 can be measured by quantifying the band intensity of G1-IGD-G2 by SDS-PAGE electrophoresis. The assay was performed in a solution A buffer with a reaction mixture volume of 10 μL. First, a mixture (10 μL) of a nucleic acid and ADAMTS5 was prepared and incubated at 25° C. for 15 min. To a substrate solution (5 μL) diluted with solution A was added a mixture (5 μL) of the nucleic acid and ADAMTS5 to start the enzyme reaction. The final concentration of ADAMTS5 in the reaction solution was 5 nM, and the final substrate concentration was 50 μg/mL. The reaction solution was incubated at 37° C. for 2 hr, 2 μL of solution D was added, and the mixture was heated at 95° C. for 2 min to stop the enzyme reaction of ADAMTS5. Solution D contains 0.25 M tris (pH 6.8), 10% SDS, 50% glycerol, 0.25% bromo phenolblue, and 20% 2-mercaptoethanol. The heat-treated reaction solution was electrophoresed by 7.5% SDS-PAGE and stained with SYPRO Orange (manufactured by Sigma-Aldrich). The staining was performed according to the manual of Sigma-Aldrich and detected using STORM840 manufactured by GE Healthcare. […] The amount of uncleaved substrate in each reaction solution was quantified from the band intensity and the standard curve. The substrate cleavage efficiency of ADAMTS5 under these reaction conditions was 80-100%. The inhibition rate of the test substance was calculated using the following equation.
The aptamers having the sequences shown in SEQ ID NOs: 10(1)-10(8) and 11(1)-11(35), SEQ ID NO: 13-15 were all produced by chemical synthesis.
As for B8, the activity stood at 62.8 % inhibition. The molecule B9 yielded an activity of 80.3 % inhibition. The same measure, in the same setting: the figure for B10 is 50.9 % inhibition; for B11 it is 81.1 % inhibition.

B12 displayed an activity of 70 % inhibition. For the molecule B13, the activity is 50.9 % inhibition.

B14 showed an activity of 38.3 % inhibition. As for B15, the activity amounted to 23 % inhibition. Still for that read-out and setting: for B16 the value was 59.1 % inhibition; for B17, 19.5 % inhibition. The same measure, in the same setting: the figure for B18 is 58.4 % inhibition; for B19 it is 62.5 % inhibition. Same read-out and setting: for B20 the value was 34.2 % inhibition; for B21, 60.6 % inhibition; for B22, 74.7 % inhibition. Molecule B23 returned an activity of 60.8 % inhibition. On to B24, for which the activity was determined as 45.1 % inhibition. Still for that read-out and setting: the figure for B25 is 58.8 % inhibition; for B26 it is 50.4 % inhibition; for B27 it is 60.3 % inhibition. Take B28: the activity was found to be 32 % inhibition. Regarding B29, the activity turned out to be 20.3 % inhibition. The molecule B30 displayed an activity of 9.2 % inhibition.

As for B31, the activity was determined as 55.5 % inhibition. With B32, the activity amounted to 60.5 % inhibition. Same read-out and setting: the figure for B33 is 43.2 % inhibition; for B34 it is 76.4 % inhibition; for B35 it is 41.3 % inhibition.

B36 registered an activity of 3.6 % inhibition.

For the molecule B37, the activity came out at 61.8 % inhibition. On the same count and under the same terms, for B38 the value was 10.4 % inhibition; for B39, 2 % inhibition; for B40, 12.8 % inhibition. The molecule B41 showed an activity of 12.6 % inhibition.

Molecule B42 showed an activity of 8.5 % inhibition.
